# Laboratory results: patent US20080058263A1 (published 2008)
# T1: VEGFR-3-Fc (UniProt P35916 25-328)
# T1 construct: domain: first three Ig domains; conditioned supernatant of 293T cells; also called VEGFR-3-Fc fusion protein; not shown: Fc fragment of the pIg vector
# T1 sequence (looked up): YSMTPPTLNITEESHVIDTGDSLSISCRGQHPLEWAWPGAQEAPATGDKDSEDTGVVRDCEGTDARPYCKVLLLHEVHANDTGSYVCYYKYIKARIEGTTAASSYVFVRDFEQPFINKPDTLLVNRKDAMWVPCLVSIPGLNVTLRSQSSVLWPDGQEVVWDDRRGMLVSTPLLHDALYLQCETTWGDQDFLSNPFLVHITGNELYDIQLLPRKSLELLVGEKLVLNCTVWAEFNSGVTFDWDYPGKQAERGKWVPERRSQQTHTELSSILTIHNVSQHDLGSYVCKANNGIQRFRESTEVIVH
# What was measured:
# Assay in all cases: receptor-Fc IP
# VEGFR-1-Fc = target: T2, VEGFR-1-Fc (UniProt P17948 27-338)
# T2 construct: domain: first three Ig domains; expressed in Drosophila S2 cells, purified on Protein A sepharose; also called VEGFR-1-Fc fusion protein; not shown: Fc fragment from the Signal-pIgPlus vector
# T2 sequence (P17948 27-338): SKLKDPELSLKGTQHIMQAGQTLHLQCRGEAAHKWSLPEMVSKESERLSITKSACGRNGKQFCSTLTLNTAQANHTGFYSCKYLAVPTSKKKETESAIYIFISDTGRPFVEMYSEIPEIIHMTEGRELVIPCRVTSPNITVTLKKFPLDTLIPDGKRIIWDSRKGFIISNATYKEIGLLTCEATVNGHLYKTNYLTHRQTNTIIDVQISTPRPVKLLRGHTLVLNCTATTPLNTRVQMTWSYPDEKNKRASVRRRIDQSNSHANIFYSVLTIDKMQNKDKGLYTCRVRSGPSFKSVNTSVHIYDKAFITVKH
# Description: (§1) The binding assay procedure was identical to the immunoprecipitation using pentahistidine antibody described in Example 2, apart from the composition of the immunoprecipitation (IP) mixes. The IP mixes used for the receptor binding analysis were as follows: For VEGFR-1 binding assays, the IP mix was phosphate buffered saline (PBS) containing 1.5% BSA, 0.06% Tween 20, 3 μg/ml heparin and 400 ng/ml VEGFR-1-Fc fusion protein (100 μl of this IP mix was added to 200 μl of sample supernatant); for VEGFR-2 binding assays, the IP mix was 82% conditioned cell supernatant from 293T cells transiently expressing VEGFR-2-Fc fusion protein in mixture with 18% of a PBS solution that contained 5% BSA, 0.2% Tween 20, and 10 μg/ml heparin (250 μl of IP mix was added to 200 μl of sample supernatant); and for VEGFR-3 binding assays, the IP mix was 82% conditioned cell supernatant from 293T cells transiently expressing VEGFR-3-Fc fusion protein, 18% of PBS containing 5% BSA, 0.2% Tween 20, and 10 μg/ml heparin (250 μl of IP mix was added to 200 μl of sample supernatant).
# VEGFR-2-Fc = target: T3, VEGFR-2-Fc (UniProt P35968 20-322)
# T3 construct: domain: first 3 Ig domains; conditioned supernatant of 293T cells; also called VEGFR-2-Fc fusion protein; not shown: Fc fragment of the pIg vector
# T3 sequence (P35968 20-322): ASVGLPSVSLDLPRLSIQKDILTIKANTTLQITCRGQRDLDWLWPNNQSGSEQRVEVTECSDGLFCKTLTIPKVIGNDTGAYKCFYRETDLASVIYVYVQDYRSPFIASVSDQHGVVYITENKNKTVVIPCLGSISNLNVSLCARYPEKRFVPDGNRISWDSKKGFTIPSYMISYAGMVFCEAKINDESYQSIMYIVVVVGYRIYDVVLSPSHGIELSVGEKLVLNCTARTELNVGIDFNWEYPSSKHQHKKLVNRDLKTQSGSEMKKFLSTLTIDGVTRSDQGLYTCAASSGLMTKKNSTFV
# Description: as §1
# VEGFR-3-Fc = target: T1, VEGFR-3-Fc
# Description: as §1
binder,measurement,setting,value
83-9 (ligand) AHYNTEILKFMDVYQRSYCHPIETLVDIFQEYPDEIEYIFKPPCVSVYRCGGCCNDEGLECVPTEESNITMQIMRITVPLSQGPKPVTISFLQHNKCECRPKKD,binding result,VEGFR-1-Fc,binds
same,binding result,VEGFR-2-Fc,no binding
same,binding result,VEGFR-3-Fc,no binding
83-11 (ligand) AHYNTEILKFMDVYQRSYCHPIETLVDIFQEYPDEIEYIFKPPCVSVYRCGGCCNSEGLQCVPTEESNITMQIMRITVPLSQGPKPVTISFLQHNKCECRPKKD,binding result,VEGFR-1-Fc,binds
same,binding result,VEGFR-2-Fc,binds
same,binding result,VEGFR-3-Fc,no binding
43-7 (ligand) AHYNTEILKFMDVYQRSYCHPREVCIDVGKEYPDEIEYIFKPPCVSVYRCGGCCNSEGLQCVPTEESNITMQIMRIKPHQGQHIGEMSFANHTSCRCMSKLD,binding result,VEGFR-1-Fc,no binding
same,binding result,VEGFR-2-Fc,no binding
same,binding result,VEGFR-3-Fc,no binding
41-7 (ligand) AHYNTEILKFMDVYQRSYCHPREVCIDVGKEYPDEIEYIFKPSCVPLMRCGGCCNSEGLQCVPTEESNITMQIMRIKPHQGQHIGEMSFANHTSCRCMSKLD,binding result,VEGFR-1-Fc,no binding
same,binding result,VEGFR-2-Fc,no binding
same,binding result,VEGFR-3-Fc,no binding
83-5 (ligand) AHYNTEILKFMDVYQRSYCHPIETLVDIFQEYPDEIEYIFKPPCVSVYRCGGCCNDEGLECVPTEESNITMQIMRIKPHQGQHIGEMSFANHTSCRCMSKLD,binding result,VEGFR-1-Fc,binds
same,binding result,VEGFR-2-Fc,binds
same,binding result,VEGFR-3-Fc,no binding
63-7 (ligand) GQNHHEVVKFMDVYQRSYCHPREVCIDVGKEYPDEIEYIFKPPCVSVYRCGGCCNSEGLQCVPTEESNITMQIMRIKPHQGQHIGEMSFANHTSCRCMSKLD,binding result,VEGFR-1-Fc,no binding
same,binding result,VEGFR-2-Fc,binds
same,binding result,VEGFR-3-Fc,binds
61-1 (ligand) GQNHHEVVKFMDVYQRSYCHPREVCIDVGKEYPDEIEYIFKPSCVPLMRCGGCCNDEGLECVPTEESNITMQIMRIKPHQGQHIGEMSFLQHNKCECRPKKD,binding result,VEGFR-1-Fc,binds
same,binding result,VEGFR-2-Fc,no binding
same,binding result,VEGFR-3-Fc,no binding
42-7 (ligand) AHYNTEILKFMDVYQRSYCHPREVCIDVGKEFGVATNTFFKPPCVSVYRCGGCCNSEGLQCVPTEESNITMQIMRIKPHQGQHIGEMSFANHTSCRCMSKLD,binding result,VEGFR-1-Fc,no binding
same,binding result,VEGFR-2-Fc,no binding
same,binding result,VEGFR-3-Fc,no binding
61-7 (ligand) GQNHHEVVKFMDVYQRSYCHPREVCIDVGKEYPDEIEYIFKPSCVPLMRCGGCCNSEGLQCVPTEESNITMQIMRIKPHQGQHIGEMSFANHTSCRCMSKLD,binding result,VEGFR-1-Fc,no binding
same,binding result,VEGFR-2-Fc,no binding
same,binding result,VEGFR-3-Fc,no binding
81-3 (ligand) AHYNTEILKFMDVYQRSYCHPIETLVDIFQEYPDEIEYIFKPSCVPLMRCGGCCNSEGLQCVPTEESNITMQIMRIKPHQGQHIGEMSFLQHNKCECRPKKD,binding result,VEGFR-1-Fc,binds
same,binding result,VEGFR-2-Fc,binds
same,binding result,VEGFR-3-Fc,no binding
81-7 (ligand) AHYNTEILKFMDVYQRSYCHPIETLVDIFQEYPDEIEYIFKPSCVPLMRCGGCCNSEGLQCVPTEESNITMQIMRIKPHQGQHIGEMSFANHTSCRCMSKLD,binding result,VEGFR-1-Fc,binds
same,binding result,VEGFR-2-Fc,binds
same,binding result,VEGFR-3-Fc,no binding
83-7 (ligand) AHYNTEILKFMDVYQRSYCHPIETLVDIFQEYPDEIEYIFKPPCVSVYRCGGCCNSEGLQCVPTEESNITMQIMRIKPHQGQHIGEMSFANHTSCRCMSKLD,binding result,VEGFR-1-Fc,binds
same,binding result,VEGFR-2-Fc,binds
same,binding result,VEGFR-3-Fc,no binding
61-5 (ligand) GQNHHEVVKFMDVYQRSYCHPREVCIDVGKEYPDEIEYIFKPSCVPLMRCGGCCNDEGLECVPTEESNITMQIMRIKPHQGQHIGEMSFANHTSCRCMSKLD,binding result,VEGFR-1-Fc,no binding
same,binding result,VEGFR-2-Fc,no binding
same,binding result,VEGFR-3-Fc,no binding
44-7 (ligand) AHYNTEILKFMDVYQRSYCHPREVCIDVGKEFGVATNTFFKPSCVPLMRCGGCCNSEGLQCVPTEESNITMQIMRIKPHQGQHIGEMSFANHTSCRCMSKLD,binding result,VEGFR-1-Fc,no binding
same,binding result,VEGFR-2-Fc,no binding
same,binding result,VEGFR-3-Fc,no binding
63-3 (ligand) GQNHHEVVKFMDVYQRSYCHPREVCIDVGKEYPDEIEYIFKPPCVSVYRCGGCCNSEGLQCVPTEESNITMQIMRIKPHQGQHIGEMSFLQHNKCECRPKKD,binding result,VEGFR-1-Fc,no binding
same,binding result,VEGFR-2-Fc,binds
same,binding result,VEGFR-3-Fc,no binding
61-3 (ligand) GQNHHEVVKFMDVYQRSYCHPREVCIDVGKEYPDEIEYIFKPSCVPLMRCGGCCNSEGLQCVPTEESNITMQIMRIKPHQGQHIGEMSFLQHNKCECRPKKD,binding result,VEGFR-1-Fc,binds
same,binding result,VEGFR-2-Fc,no binding
same,binding result,VEGFR-3-Fc,no binding
44-1 (ligand) AHYNTEILKFMDVYQRSYCHPREVCIDVGKEFGVATNTFFKPSCVPLMRCGGCCNDEGLECVPTEESNITMQIMRIKPHQGQHIGEMSFLQHNKCECRPKKD,binding result,VEGFR-1-Fc,no binding
same,binding result,VEGFR-2-Fc,no binding
same,binding result,VEGFR-3-Fc,no binding
81-5 (ligand) AHYNTEILKFMDVYQRSYCHPIETLVDIFQEYPDEIEYIFKPSCVPLMRCGGCCNDEGLECVPTEESNITMQIMRIKPHQGQHIGEMSFANHTSCRCMSKLD,binding result,VEGFR-1-Fc,binds
same,binding result,VEGFR-2-Fc,binds
same,binding result,VEGFR-3-Fc,no binding
44-5 (ligand) AHYNTEILKFMDVYQRSYCHPREVCIDVGKEFGVATNTFFKPSCVPLMRCGGCCNDEGLECVPTEESNITMQIMRIKPHQGQHIGEMSFANHTSCRCMSKLD,binding result,VEGFR-1-Fc,no binding
same,binding result,VEGFR-2-Fc,no binding
same,binding result,VEGFR-3-Fc,no binding
44-3 (ligand) AHYNTEILKFMDVYQRSYCHPREVCIDVGKEFGVATNTFFKPSCVPLMRCGGCCNSEGLQCVPTEESNITMQIMRIKPHQGQHIGEMSFLQHNKCECRPKKD,binding result,VEGFR-1-Fc,no binding
same,binding result,VEGFR-2-Fc,no binding
same,binding result,VEGFR-3-Fc,no binding
43-5 (ligand) AHYNTEILKFMDVYQRSYCHPREVCIDVGKEYPDEIEYIFKPPCVSVYRCGGCCNDEGLECVPTEESNITMQIMRIKPHQGQHIGEMSFANHTSCRCMSKLD,binding result,VEGFR-1-Fc,no binding
same,binding result,VEGFR-2-Fc,no binding
same,binding result,VEGFR-3-Fc,no binding
83-3 (ligand) AHYNTEILKFMDVYQRSYCHPIETLVDIFQEYPDEIEYIFKPPCVSVYRCGGCCNSEGLQCVPTEESNITMQIMRIKPHQGQHIGEMSFLQHNKCECRPKKD,binding result,VEGFR-1-Fc,binds
same,binding result,VEGFR-2-Fc,binds
same,binding result,VEGFR-3-Fc,no binding
81-1 (ligand) AHYNTEILKFMDVYQRSYCHPIETLVDIFQEYPDEIEYIFKPSCVPLMRCGGCCNDEGLECVPTEESNITMQIMRIKPHQGQHIGEMSFLQHNKCECRPKKD,binding result,VEGFR-1-Fc,binds
same,binding result,VEGFR-2-Fc,binds
same,binding result,VEGFR-3-Fc,no binding
83-1 (ligand) AHYNTEILKFMDVYQRSYCHPIETLVDIFQEYPDEIEYIFKPPCVSVYRCGGCCNDEGLECVPTEESNITMQIMRIKPHQGQHIGEMSFLQHNKCECRPKKD,binding result,VEGFR-1-Fc,binds
same,binding result,VEGFR-2-Fc,binds
same,binding result,VEGFR-3-Fc,no binding
